The chains are these.
T1: FcgRIa (human, UniProt P12314)
T1 chain: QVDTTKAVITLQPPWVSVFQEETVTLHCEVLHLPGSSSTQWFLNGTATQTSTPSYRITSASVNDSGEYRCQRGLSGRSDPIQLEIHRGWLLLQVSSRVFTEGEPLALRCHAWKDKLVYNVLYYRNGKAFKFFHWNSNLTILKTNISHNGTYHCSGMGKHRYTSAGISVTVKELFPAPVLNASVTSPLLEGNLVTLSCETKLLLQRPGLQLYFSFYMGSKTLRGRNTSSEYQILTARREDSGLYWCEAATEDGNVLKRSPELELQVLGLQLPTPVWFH

T2: FcgRIIa H (human, UniProt P12318)
T2 chain: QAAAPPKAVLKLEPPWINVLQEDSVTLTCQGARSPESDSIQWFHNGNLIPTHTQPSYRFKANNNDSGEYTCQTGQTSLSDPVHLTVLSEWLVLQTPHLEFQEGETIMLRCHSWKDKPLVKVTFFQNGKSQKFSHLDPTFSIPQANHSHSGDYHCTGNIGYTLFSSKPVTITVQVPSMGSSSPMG

T3: FcgRIIb (human, UniProt P31994)
T3 chain: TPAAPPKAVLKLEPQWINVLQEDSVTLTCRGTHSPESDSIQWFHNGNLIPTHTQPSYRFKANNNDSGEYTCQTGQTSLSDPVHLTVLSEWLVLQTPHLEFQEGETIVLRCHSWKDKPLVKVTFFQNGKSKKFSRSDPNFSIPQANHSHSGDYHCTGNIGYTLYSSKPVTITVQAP

T4: FcgRIIa R (human, UniProt P12318)
T4 chain: T2 chain with H134R

B1: H240-FA020/H240-FB083/L73-k0 (antibody)
chain 1: QDQLVQSGAEVKKPGASVKVSCKASGFNIKDTYIQWVRQAPGQGLEWMGRIDPLRKQTKYREKFEGRVTITADTSTNTAYMELSSLRSEDTAVYYCVRSGREFDYWGQGTLVTVSSASTKGPSVFPLAPSSKSTSGGTAALGCLVKDYFPEPVTVSWNSGALTSGVHTFPAVLQSSGLYSLSSVVTVPSSSLGTKTYTCNVNHKPSNTKVDKKVEPKSCDKTHTCPPCPAPEYYWGPSVFLFPPKPKDTLMISRTPEVTCVVVDVSDEEPEVKFNWYVDGVEVHNAKTKPREEQYNATYRVVSVLTVLHQDWLNGKEYKCKVSNKALPAPIEKTISKAKGQPREPQVYTLPPSRKEKTKNQVSLTCLVKGFYPSDIAVEWESNGQPENNYKTTPPVLDSDGSFFLYSKLTVDKSRWQQGNVFSCSVMHEALHNRYTQKSLSLSP
chain 2: QDQLVQSGAEVKKPGASVKVSCKASGFNIKDTYIQWVRQAPGQGLEWMGRIDPLRKQTKYREKFEGRVTITADTSTNTAYMELSSLRSEDTAVYYCVRSGREFDYWGQGTLVTVSSASTKGPSVFPLAPSSKSTSESTAALGCLVEDYFPEPVTVSWNSGALTSGVHTFPAVLQSSGLYSLSSVVTVPSSNFGTQTYTCNVDHKPSNTKVDKTVEPKSCDKTHTCPPCPAPELLGGPSVFLFPPKPKDTLMISRTPEVTCVVVDVSHEEPEVQFNWYVDGVEVHNAETKPREEQYNSTYRVVSVLTVLHQDWLNGKEYKCKVSNDALPMPIEETISKAKGQPREPQVYTLPPSREEMTKNQVSLTCLVKGFYPSDIAVEWESNGQPENNYKTTPPVLDSDGSFFLYSKLTVDKSRWQQGNVFSCSVMHEALHNHYTQESLSLSP
chain 3: DIQMTQSPSSLSASVGDRVTITCRASQDIHKYIAWYQQKPGQAPRLLIQYTSTLQPGVPSRFSGSGSGTDYTFTISSLQPEDIATYYCLQYEQLRTFGGGTKVEIKRTVAAPSVFIFPPSDEQLKSGTASVVCLLNNFYPREAKVQWKVDNALQSGNSQESVTEQDSKDSTYSLSSTLTLSKADYEKHKVYACEVTHQGLSSPVTKSFNRGEC
B2: H240-FA009/H240-FB001/L73-k0 (antibody)
chain 1: B1 chain 1 with T198I, K357M
chain 2: B1 chain 2 with E136G, S137G, E146K, N191S, F192L, T198I, D202N, T213K, E287K
chain 3: B1 chain 3
B3: H240-FA021/H240-FB059/L73-k0 (antibody)
chain 1: B1 chain 1 with V396K
chain 2: B1 chain 2 with E136G, S137E, N191S, F192L, T198I, D202N, T213K
chain 3: B1 chain 3
B4: H240-FA009/H240-FB033/L73-k0 (antibody)
chain 1: B1 chain 1 with T198I, K357M
chain 2: B1 chain 2 with E136G, S137E, E146K, N191S, F192L, T198I, D202N, T213K, E287K
chain 3: B1 chain 3
B5: H240-FA021/H240-FB083/L73-k0 (antibody)
chain 1: B1 chain 1 with V396K
chain 2: B1 chain 2
chain 3: B1 chain 3
B6: H240-FA021/H240-FB084/L73-k0 (antibody)
chain 1: B1 chain 1 with V396K
chain 2: B1 chain 2 with N383E
chain 3: B1 chain 3
B7: H240-FA024/H240-FB064/L73-k0 (antibody)
chain 1: B1 chain 1 with E271K
chain 2: B1 chain 2 with E146K, E287K
chain 3: B1 chain 3
B8: H240-FA024/H240-FB082/L73-k0 (antibody)
chain 1: B1 chain 1 with E271K
chain 2: B1 chain 2 with E136G, S137E, N191S, F192L, T198I, D202N, T213K, N383E
chain 3: B1 chain 3
B9: H240-FA030/H240-FB082/L73-k0 (antibody)
chain 1: B1 chain 1 with E271K, K357M
chain 2: B1 chain 2 with E136G, S137E, N191S, F192L, T198I, D202N, T213K, N383E
chain 3: B1 chain 3
B10: H240-FA024/H240-FB059/L73-k0 (antibody)
chain 1: B1 chain 1 with E271K
chain 2: B1 chain 2 with E136G, S137E, N191S, F192L, T198I, D202N, T213K
chain 3: B1 chain 3
B11: H240-FA009/H240-FB016/L73-k0 (antibody)
chain 1: B1 chain 1 with T198I, K357M
chain 2: B1 chain 2 with E136G, S137G, E146K, N191S, F192L, T198I, T213K, E287K
chain 3: B1 chain 3
B12: H240-FA009/H240-FB047/L73-k0 (antibody)
chain 1: B1 chain 1 with T198I, K357M
chain 2: B1 chain 2 with E136G, S137G, E146K, N191S, F192L, T198I, D202N, T213K, E287K, N383E
chain 3: B1 chain 3
B13: H240-FA030/H240-FB059/L73-k0 (antibody)
chain 1: B1 chain 1 with E271K, K357M
chain 2: B1 chain 2 with E136G, S137E, N191S, F192L, T198I, D202N, T213K
chain 3: B1 chain 3
B14: H240-FA030/H240-FB084/L73-k0 (antibody)
chain 1: B1 chain 1 with E271K, K357M
chain 2: B1 chain 2 with N383E
chain 3: B1 chain 3
B15: H240-FA024/H240-FB065/L73-k0 (antibody)
chain 1: B1 chain 1 with E271K
chain 2: B1 chain 2 with E146K
chain 3: B1 chain 3

Numbering of substitutions follows the chain as printed. Where “and” joins values, the source holds several entries; their conditions need not be identical. Equal values may be shown once.

In one assay the target is FcgRIIIa F (human, UniProt P08637). The assay is described as follows: SPR. In general terms: In SPR one partner is held on a chip, and binding of the other changes the refractive index at the surface.
Sequence of FcgRIIIa F (P08637 17-208): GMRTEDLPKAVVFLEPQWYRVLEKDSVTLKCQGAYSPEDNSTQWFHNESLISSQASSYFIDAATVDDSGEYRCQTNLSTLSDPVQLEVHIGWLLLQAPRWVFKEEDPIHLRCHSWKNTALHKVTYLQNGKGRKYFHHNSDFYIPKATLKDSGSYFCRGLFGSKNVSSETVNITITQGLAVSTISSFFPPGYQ
Consider B1, for which binding was put at a Kd of 3.4 nM. That is a single-digit nanomolar value.
The same measure, in the same setting: the value for B2 was 4.3 nM; that for B3 was 4.4 nM.
On to B4, for which the affinity, expressed as Kd, was 3.4 nM.
Still for that read-out and setting: the value for B5 was 3.9 nM; that for B6 was 3.3 nM; that for B7 was 4.7 nM.
Still for that read-out and setting: the value for B8 was 4.6 nM; that for B9 was 4.3 nM.
Same read-out and setting: the value for B10 was 4.4 nM; that for B11 was 4.4 nM.
As for B12, the Kd (in general, the equilibrium constant for the complex coming apart) worked out at 4.4 nM.
Same read-out and setting: with B13 the figure was 3.9 nM and 4.8 nM.
In the case of B14, the Kd came out at 4.2 nM.
On the same count and under the same terms, the value for B15 was 5 nM.

A further assay deals with T1, FcgRIa. Briefly: SPR.
Molecule B1 returned a Kd of 0.12 nM. This lies in the sub-nanomolar range.
Consider B2, for which the Kd is 0.17 nM. This Kd and that of the molecule before are within 1.5-fold of each other.
On the same count and under the same terms, the value for B3 was 0.069 nM; that for B4 was 0.12 nM; that for B5 was 0.078 nM.
Same read-out and setting: the value for B6 was 0.033 nM; that for B7 was 0.095 nM.
On the same count and under the same terms, the value for B8 was 0.13 nM; that for B9 was 0.092 nM.
Turning to B10, the Kd stood at 0.089 nM.
On the same count and under the same terms, with B11 the figure was 0.13 nM.
Same read-out and setting: the value for B12 was 0.05 nM; that for B13 was 0.082 nM and 0.12 nM; that for B14 was 0.12 nM.
On the same count and under the same terms, with B15 the figure was 0.15 nM.

The next assay addresses T2, FcgRIIa H. Briefly: SPR.
As for B1, the Kd is 65 nM.
In the case of B2, the affinity, expressed as Kd, was 69 nM.
On the same count and under the same terms, the value for B3 was 92 nM.
On the same count and under the same terms, the value for B4 was 80 nM.
The same measure, in the same setting: with B5 the figure was 69 nM; with B6, 69 nM.
B7 came in with a Kd of 110 nM.
On the same count and under the same terms, with B8 the figure was 80 nM; with B9, 88 nM.
Take B10: the Kd was 93 nM.
For B11, the Kd was 70 nM.
B12 came in with a Kd of 74 nM.
Same read-out and setting: the value for B13 was 85 nM.
B14 returned a Kd of 88 nM.
Still for that read-out and setting: the value for B15 was 95 nM.

For another assay, the target named is FcgRIIIa V (human, UniProt P08637). The assay is described as follows: SPR.
Sequence of FcgRIIIa V (P08637 17-208 F176V): as the sequence (P08637 17-208) above, with F160V counted along it
The molecule B1 gave a Kd of 1.1 nM.
On the same count and under the same terms, with B2 the figure was 1.1 nM.
Turning to B3, the affinity, expressed as Kd, was 1.7 nM.
The same measure, in the same setting: with B4 the figure was 1 nM; with B5, 1.4 nM.
The same measure, in the same setting: with B6 the figure was 1.3 nM.
On the same count and under the same terms, with B7 the figure was 1.3 nM; with B8, 1.3 nM.
As for B9, the Kd worked out at 1.3 nM.
Still for that read-out and setting: with B10 the figure was 1.3 nM; with B11, 1 nM.
The same measure, in the same setting: with B12 the figure was 1.1 nM; with B13, 1.2 nM and 1.4 nM.
In the case of B14, the Kd is 1.3 nM.
The same measure, in the same setting: the value for B15 was 1.4 nM.

The target of the next assay is T3, FcgRIIb. Briefly: SPR.
B1: the Kd was 1000 nM.
On the same count and under the same terms, with B2 the figure was 1300 nM; with B3, 1300 nM; with B4, 1600 nM.
Same read-out and setting: the value for B5 was 1300 nM; that for B6 was 1300 nM; that for B7 was 1900 nM.
Still for that read-out and setting: the value for B8 was 1500 nM; that for B9 was 1900 nM; that for B10 was 1600 nM.
Consider B11, for which the Kd was found to be 1400 nM.
Still for that read-out and setting: the value for B12 was 1700 nM; that for B13 was 1500 nM; that for B14 was 2500 nM.
The same measure, in the same setting: the value for B15 was 1700 nM.

In another assay the target is T4, FcgRIIa R. The assay is described as follows: SPR.
B1 displayed a Kd of 230 nM.
B2: the Kd was found to be 250 nM.
Still for that read-out and setting: with B3 the figure was 280 nM; with B4, 310 nM; with B5, 240 nM.
As for B6, the Kd worked out at 230 nM.
B7 registered a Kd of 330 nM.
Still for that read-out and setting: with B8 the figure was 240 nM.
The same measure, in the same setting: with B9 the figure was 300 nM; with B10, 290 nM; with B11, 250 nM.
Still for that read-out and setting: with B12 the figure was 270 nM.
On to B13, for which the Kd was 260 nM and 250 nM.
Still for that read-out and setting: the value for B14 was 270 nM; that for B15 was 300 nM.

The values above are taken from patent US10766960 (dated 2020).
